In patent US12723255B2, “Herbicide tolerance genes and methods of use thereof” (priority 2014, dated 2026):
Like-named read-outs stand apart in the source and are kept apart here.

Columns and labels:
[1] = kinetic analysis, non-endpoint assay at 23° C.; type: biochemical; details: for Vmax Quizalofop / Km / Vmax 2,4-D: standard error in parenthetical
Source text: For the fifth screen, recombinant protein for each of the eleven engineered proteins was produced and purified for an in-depth biochemical analysis. This biochemical analysis included: (1) kinetic analysis (Vmax and Km), (2) activity assays over a range of temperatures, (3) protein melting analysis, (4) activity on additional AOPP herbicides substrates, and (5) mass spectrometry analysis on peptides to confirm identity. The biochemical analyses were also done with purified recombinant wild-type protein and MON-HT55 protein for comparison. For the kinetic analysis, a non-endpoint assay was conducted at 23° C. with either quizalofop-P or 2,4-D as substrate. The recombinant proteins for these assays were produced in bacteria and purified using a 6-His tag fused at the C-terminal end of the protein. Results of the kinetic analysis with either quizalofop-P or 2,4-D as substrate are presented for ten of the engineered proteins, wild-type protein, and MON-HT55 protein in Table 7 (standard error is shown in parenthetical). Vmax is expressed as specific activity, umol herbicide product mg enzyme-1 min-1; Km expressed as mM herbicide substrate. […] The differentiation of the protein kinetics for MON-HTI and MON-HT7 were surprising because there are only four amino acid differences between MON-HT1 and MON-HT7. Specifically, MON-HT1 has the following amino acids at the indicated position: 182; F105; T112; and V273, and MON-HT7 has the following amino acids at the indicated position: L82; V105; S112; and A273.
Kinetic analysis using a non-endpoint assay was conducted at 23° C. with either quizalofop-P or 2,4-D as substrate, as detailed above for purified protein of the wild-type enzyme, MON-HT1, MON-HT13, MON-HT15, and MON-HT17.

[2] = enzyme activity assay at 23° C. with purified enzyme; type: biochemical
Protocol: The enzyme activity of MON-HT protein variants with haloxyfop, fenoxaprop, fluazifop, and dichlorprop as substrates was determined using the enzyme activity assay conducted at 23° C. with purified enzyme. The activity was recorded as the maximum activity as a percentage of the wild-type enzyme's activity, which was set at 100%.

[3] = type: physicochemical; details: buffer; for T1/2, temperature where 50% of the protein was unfolded, Buffer: pH 7.5
Protocol: A protein melting analysis was also conducted. For the protein melting determinations, purified enzyme was added to 96-well microtiter plates in standard storage buffer (30 mM Tris pH7.5, 150 mM NaCl) with or without 50 uM Fe2+ and 1.0 mM aKG. Protein unfolding was then detected with SYPRO® orange protein gel stain (Invitrogen™ catalog #S6651, Life Technologies, Grand Island, NY) in a BioRad CFX96™ Real time PCR machine (BioRad, Hercules, CA) with readings taken between 10° C. to 95° C. in 0.5° C. steps. […] In contrast, 50 uM Fe2+ and 1.0 mM aKG had little effect on the stability of any of the engineered proteins. MON-HT55, MON-HT3, MON-HT4, MON-HT6, and MON-HT10 had melting temperatures in the range of 41° C. to 48° C., which is below the melting temperature of the wild-type enzyme. MON-HT1, MON-HT2, MON-HT5, MON-HT7, MON-HT8, and MON-HT9 had melting temperatures between 58° C. and 67° C., which is 8° C. to 17° C. higher than the wild-type enzyme. For MON-HT7 and MON-HT1, the difference in melting point was 11° C. in buffer without Fe2+ and aKG and 8° C. in buffer with Fe2+ and aKG. This was surprising since there are only four amino acid differences between the two enzymes.
A protein melting analysis was conducted as detailed above. The melting temperatures of MON-HT13, MON-HT15, and MON-HT17 was similar to the melting temperature of MON-HT1 with T1/2 in buffer in the range of 55-58° C., and with T1/2 in buffer plus Fe2+ and aKG in the range of 60-62° C.

F1 hybrid maize plants = experiment: efficacy field trial with segregating F1 hybrid plants; type: in vivo; details: CTP A
Protocol: Ten unique engineered proteins optimized for activity at higher temperatures were selected for maize transformation and analysis in plants. DNA constructs were produced for expressing these engineered proteins with codon usage optimized for monocot expression using methods known to those skilled in the art. Enhancers, promoters, leaders, introns, CTPs, and 3′UTRs were tested in various combinations with the engineered proteins in these DNA constructs. The DNA constructs were used to transform immature maize (LH244) embryos with these vectors using Agrobacterium tumifaciens and standard methods known in the art. Regenerated R0 transgenic plantlets were grown in the green house.
Transgenic R0 maize plants were screened by the application of quizalofop-P (2×) plus 2,4-D (2×) at 7 to 10 days following transplant into plugs (generally corresponding to V3-V4 growth stage). All constructs tested produced plants containing unique events that passed the RO screen. The R0 plants were selfed to generate R1 homozygous seed and the R0 was also used as the male to cross with inbred plants containing maize event MON89034 to generate segregating F1 hybrid seed for efficacy field trials.
An efficacy field trial was conducted with segregating F1 hybrid plants, with 50% hemizygous and 50% null for the transgene. Tolerance to quizalofop-P (2×) plus 2,4-D (2×) was assessed using two herbicide application regimens: (1) quizalofop-P (Assure II) at 0.16 lb ai/acre (2×) plus 0.25% v/v non-ionic surfactant (NIS) applied at VE-V2 growth stage followed by the same at V4 growth stage followed by the same at V8 growth stage and (2) 2,4-D amine at 2 lb ae/acre (2×) plus quizalofop-P at 0.04 lb ai/acre (0.5×) plus 0.25% v/v NIS applied at VE-V2 growth stage followed by 2,4-D amine at 2 lb ae/acre (2×) plus 0.25% v/v NIS applied at V4 growth stage followed by the same at V8 growth stage. The 50% of the plants that were null for transgene were removed by the first quizalofop-P application at VE-V2 growth stage. Plots were visually rated 10-14 days after application for crop injury on a scale of 0 to 100 with “0” being none and “100” being complete crop destruction. […] The percentage injury rating with 2× application of 2,4-D at V8 growth stage ranged from a high of 40% to a low of 0. Similarly, the percentage injury rating with 2× application of quizalofop-P at V8 growth stage ranged from a high of 90% to a low of 0. Variation in injury rating between plants expressing the same protein is likely due to variations in construct design or transgene insertion location.

[4] = 23° C., purified His-tagged protein
[5] = 23° C., purified His-tagged protein, read-out: Km Quizalofop
[6] = NDB = activity not robust enough for kinetic characterization
[7] = NDB = activity not robust enough for kinetic characterization, read-out: Km 2,4-D
[8] = 2,4-D amine 2× at VE-V2 (plus quizalofop-P 0.5×), V4, V8
[9] = quizalofop-P 2× at VE-V2, V4, V8

B1: MON-HT55: engineered oxygenase protein, amino acid sequence SEQ ID NO:11 (protein)
chain: MHAALSPLSQRFERIAVQPLTGVLGAEITGVDLREPLDDSTWNEILDAFHTYQVIYFPGQAITNEQHIAFSRRFGPVDPVPLLKSIEGYPEVQMIRREANESGRVIGENWHTDSTFLDAPPAAVVMYAKEIPPYGGDTLFTSMYTAWETLSPTMQATIEGLNVVHSATRVFGSLYQAQNRRFSNTSVKVMDVDAGDRETVHPLVVTHPETGRKGLYVNQVYCQRIEGMSEKESEPLLSFLFAHATKPEFTCRVRWQEGDVLVWDNLCTQHYAVPDYAGKFRYLTRTTVGGVRPAR
Vmax Quizalofop [1, 4]: 0.44 (−0.04) umol herbicide product mg enzyme-1 min-1 | Km [1, 5]: 320 µM | Vmax 2,4-D [1, 6]: 0.03 (−0.02) umol herbicide product mg enzyme-1 min-1 | Km [1, 7]: 690 µM | maximum activities for all four substrates compared with the wild-type enzyme ([2]; haloxyfop, fenoxaprop, fluazifop and dichlorprop): lower than, or equal to | maximum activity as a percentage of the wild-type enzyme's activity, Haloxyfop ([2]; purified enzyme, wild-type set at 100%): 58% | maximum activity as a percentage of the wild-type enzyme's activity, Dichlorprop ([2]; wild-type set at 100%): 31% | maximum activity as a percentage of the wild-type enzyme's activity, Fenoxaprop ([2]; wild-type set at 100%): 34% | maximum activity as a percentage of the wild-type enzyme's activity, Fluazifop ([2]; wild-type set at 100%): 38% | T1/2, temperature where 50% of the protein was unfolded, Buffer plus Fe2+ and aKG [3]: 41 °C | T1/2, temperature where 50% of the protein was unfolded, Buffer [3]: 41 °C

B2: MON-HT7: engineered oxygenase protein, amino acid sequence SEQ ID NO:34 (protein)
chain: MHAALTPLTNKYRFIDVQPLTGVLGAEITGVDLREPLDDSTWNEILDAFHTYQVIYFPGQAITNEQHIAFSRRFGPVDPVPLLKSIEGYPEVQMIRREANESGRVIGDDWHADSTFLDAPPAAVVMRAIEVPEYGGDTGFLSMYSAWETLSPTMQATIEGLNVVHSATKVFGSLYQATNWRFSNTSVKVMDVDAGDRETVHPLVVTHPVTGRRALYCNQVYCQKIQGMTDAESKSLLQFLYEHATKFDFTCRVRWKKDQVLVWDNLCTMHRSVPDYAGKFRYLTRTTVAGDKPSR
Vmax for 2,4-D relative to the wild-type enzyme [1]: about half | Vmax with quizalofop-P greater than the wild-type enzyme ([1]; 23° C.): approximately 40% | Vmax Quizalofop [1, 4]: 1.94 (−0.12) umol herbicide product mg enzyme-1 min-1 | Km [1, 5]: 330 µM | Vmax 2,4-D [1, 6]: 0.04 (−0.01) umol herbicide product mg enzyme-1 min-1 | Km [1, 7]: 60 µM | % Injury from V4 2,4-D (F1 hybrid maize plants; [8]): 21.6% | % Injury from V8 2,4-D (F1 hybrid maize plants; [8]): 16.6% | % Injury from V4 Quizalofop (F1 hybrid maize plants; [9]): 31.2% | % Injury from V8 Quizalofop (F1 hybrid maize plants; [9]): 5% | T1/2, temperature where 50% of the protein was unfolded, Buffer plus Fe2+ and aKG [3]: 67 °C | T1/2, temperature where 50% of the protein was unfolded, Buffer [3]: 67 °C
